Test results taken from patent US20230256114A1, “NOVEL MAYTANSINOIDS AS ADC PAYLOADS AND THEIR USE FOR THE TREATMENT OF CANCER” (priority 2020, published 2023).

Columns and labels:
[1] = Size exclusion chromatography (SEC) of ADC monomer and aggregates; assay type: physicochemical; details: for Aggregation rate (%): anti-Trop-2 ADC with the named payload, Cysteine conjugation
Method: Some embodiments of the invention relate to DM1s linked to antibodies via a non-cleavable linker. In this example, anti-Trop-2 antibody was reduced by adding antibody to TCEP (Tris (2-carboxyethyl) phosphine) dissolved in a pH-adjusted PBS EDTA buffer. The antibody/TCEP solution was incubated at 37° C. for 2-3 hrs. The reduced antibodies were buffer exchanged into conjugation reaction buffer. The BI-P203 payload dissolved in DMSO was added to a solution of reduced anti-Trop-2 monoclonal antibody at payload/antibody ratio of 7-30:1 in order to achieve different drug to antibody ratios (DARs). The payload/antibody solution was incubated for 1-2 hr at 20° C. while the reduced antibody was conjugated to BI-P203 payload via the maleimide group. After conjugation was completed, the reaction mixture was desalted and concentrated to yield anti-Trop-2-DM1 ADCs. The biochemical properties of the resulting ADCs were characterized using size-exclusion chromatography high pressure liquid chromatography (SEC-HPLC) to determine purity and aggregation content, and by using hydrophobic interaction chromatography HPLC (HIC-HPLC) to confirm drug loading (DAR). The conjugation procedure is illustrated in FIG. 12. The final ADC products are comprised of four or six or seven DM1-linker molecules. The cysteine conjugation method used in the conjugation process produces more homogenous ADCs compared to lysine conjugation method.

[2] = tested on: MDA-MB-468 breast cancer cells; assay: In vitro cytotoxicity assay (Cell Counting Kit-8, 72 hours); assay type: cell-based, human; details: FIG. 21
Method: Anti-Trop-2 ADCs were conjugated with different DM1 derivatives with similar DARs, and were tested ahead to ahead with anti-Trop-2-SMCC-DM1 and anti-Trop-2-vc-MMAE against BxPC-3 pancreatic cancer cells representing high Trop-2 expression, MDA-MB-468 breast cancer cells, N87 gastric cancer cells, and SK-BR-3 […] cancer cells representing moderate Trop-2 expression, Colo205 colon cancer cells representing low Trop-2 expression, and A549 lung cancer cells and MDA-MB-231 breast cancer cells with undetectable level of Trop-2. In vitro cytotoxicity assay was performed. Briefly, all cell lines were cultured in a suitable culture medium at 37° C. in a humidified incubator atmosphere of 5% CO2. Cells were plated in 96-well flat bottom plates. Cell seeding number ranged from 500 cells//100 ul/well to 6,000 cells/100 μl/well. Cells were allowed to adhere overnight at 37° C. in a humidified atmosphere of 5% CO2. ADCs were prepared from stock solution and diluted into appropriated working concentration 24 hours after cell seeding. […] Cell Counting Kit-8 solution (Dojindo China Co., Ltd, lot #PL701) was added to the wells for 1-4 hours at 37° C. and the absorbance at 450 nm was measured using a Microplate Reader (SpectraMax M5, Molecular Devices) and SoftMax Pro5.4.1 software. Dose-response curves were generated and IC50 was calculated using GraphPad Prism 7 three-parameter curve fitting.

[3] = Solubility of payloads and ADCs (comparison in words); details: inferred from Table 2
Method: The lipophilicity and aggregation rate of the ADCs of the present invention were characterized. The most commonly used measure of lipophilicity is LogP, which is the partition coefficient of a molecule between aqueous and lipophilic phases, usually octanol and water. […] In this experiment, the LogP of anti-Trop-2 BI-P203 and anti-Trop-2-SMCC-DM1 was calculated using ChemDraw software. Size exclusion chromatography (SEC) was used to characterize the ADC monomer and their aggregates.

[4] = Size exclusion chromatography (SEC) of ADC monomer and aggregates; assay type: physicochemical; details: anti-Trop-2 ADC with the named payload, Lysine conjugation, DAR 3.9

COc1cc2cc(c1Cl)N(C)C(=O)C[C@H](OC(=O)[C@H](C)N(C)C(=O)CCOCCn1cc(COCCOCCOCCOCCNC(=O)CCN3C(=O)C=CC3=O)nn1)[C@@]1(C)O[C@H]1[C@H](C)[C@@H]1C[C@@](O)(NC(=O)O1)C(OC)/C=C/C=C(\C)C2 (stereo partly shown) [BI-P203]
aggregation rate compared to SMCC-DM1 payload ([1]; ADCs of the payloads): decreased aggregation rate
Aggregation rate (%) ([1]; DAR 3.5): 0.33%
Aggregation rate (%) ([1]; DAR 6.2): 1.0%
Aggregation rate (%) ([1]; DAR 7.0): 2.0%
in vitro activity of the free payload compared with free SMCC-DM1 payload [2]: less activity than that of free SCMM-DM1 payload
solubility of payload compared to SMCC-DM1 payload [3]: increased solubility

COc1cc2cc(c1Cl)N(C)C(=O)C[C@H](OC(=O)[C@H](C)N(C)C(=O)CCSC1CC(=O)N(CC3CCC(C(=O)ON4C(=O)CCC4=O)CC3)C1=O)[C@]1(C)O[C@H]1[C@H](C)[C@@H]1C[C@@](O)(NC(=O)O1)[C@H](OC)/C=C/C=C(\C)C2 (stereo partly shown) [SMCC-DM1]
Aggregation rate (%) [4]: 3.6%
